Measurements reported in patent US20220170056A1, “COMPOSITIONS AND METHODS FOR BIOSYNTHESIS OF […] CANNABINOIDS IN A HE[…]” (INMED PHARMACEUTICALS INC., priority 2019, published 2022).

Experiments:
MEP pathway flux = test: Lycopene production (MEP pathway flux) in recombinant E. coli; format: cell-based, E. coli BL21(DE3); settings: for terpene titer (lycopene and isoprene), in words: IspDF2 and IspDF3 versions of the Dxs-IspDF-Idi chassis, FIG. 18
Method: Both isoprene and lycopene starter cultures were cultivated overnight at 30° C. in LB media (Sigma-Aldrich) containing appropriate antibiotic/s. Isoprene starter cultures were then diluted to 15 mL with the medium to OD600 of 0.2, induced with arabinose and/or IPTG; and allowed to grow for 24 h at 30° C. in 25 mL sealed glass tube. Lycopene starter cultures were diluted to 5 mL with the medium to OD600 of 0.2, induced with IPTG, and allowed to grow for 24 h at 30° C. in culture tubes in the dark.
Lycopene is an intracellular product. 2 mL of cell culture was centrifuged at 8000 rpm for 5 min and lycopene was extracted by extraction from the pellet with 1 mL acetone. Extraction was performed at 55° C. with intermittent vortexing for 20 min in reduced light condition. The acetone suspension was centrifuged and filtered before analysis. Samples were analyzed on the PerkinElmer Flexar system equipped with Zorbax C-18 column (4.6×250 mm, Agilent Technologies) maintained at 30° C. Samples were run with mobile phase consisting of 66% (v/v) methanol, 30% (v/v) tetrahydrofuran and 4% (v/v) water at 1 mL/min flow rate. Lycopene detection was done by monitoring absorbance at 474 nm wavelength using a photodiode detector.

E. coli [1] = test: CBGA production in E. coli expressing NphB variant and transporter, fed OA; format: cell-based; settings: cells expressing NphB variant; compared to control cell not expressing a heterologous transporter (FIG. 9)
Method: (§1) The following experimental host cells were tested: (1) E. coli transformed with plasmids encoding arabinose inducible transporters pcaK or pp3656; and (2)) E. coli transformed with plasmids encoding arabinose inducible transporters pcaK or pp3656 and B5 plasmid (encoding ispDF1 enzyme, GPPS, and an optimized variant NphB (see, Valliere et al.).
(§2) Seed cultures of (1) were inoculated from glycerol stock into 5 mL LB with 34 μg/mL chloramphenicol, incubate at 30° C. overnight. Seed cultures of (2) were inoculated from glycerol stock into 5 mL LB with 34 μg/mL chloramphenicol and 50 μg/mL kanamycin, incubate at 30° C. overnight.
Induction cultures of (2) were inoculated from seed culture into total culture volume 5 mL TB media with 0.5 mM OA, 5 mM MgCl2, and cultured at 30° C. until OD600 of 0.8. Cultures were induced by adding arabinose to a final concentration of 5 mM arabinose and IPTG to a final concentration of 100 μM. During induction, cultures were incubated at 30° C. Induction culture samples were collected at 24 h and 48 hr time points after the start of induction.
(§3) Cultures first centrifuged at 3000 rpm for 10 m to separate pellet and culture media supernatant fractions. Pellets also washed with PBS twice. Cell pellets lysed with B-PER Complete Reagent following manufacturer's protocol. […] Samples of the cell lysates were analyzed by SDS-PAGE analysis. […]

E. coli [2] = test: Olivetolate (OA) uptake into E. coli expressing heterologous transporter; format: cell-based; settings: 24 to 48 hours after induction; compared to BL21 control without additional transporters (FIG. 8)
Method: as §1, §2
Induction cultures of (1) were inoculated from seed culture into total culture volume 5 mL TB media with 0.1 mM OA and cultured at 30° C. until OD600 of 0.8. Cultures were induced by adding arabinose and magnesium to a final concentration of 5 mM arabinose and 5 mM MgCl2. During induction, cultures were incubated at 30° C. Induction culture samples were collected at 24 h and 48 hr time points after the start of induction.
as §3

B1: IspEF fusion: non-natural fusion, E. coli IspE linked by flexible linker (FL) to E. coli IspF (protein)
chain: MRTQWPSPAKLNLFLYITGQRADGYHTLQTLFQFLDYGDTISIELRDDGDIRLLTPVEGVEHEDNLIVRAARLLMKTAADSGRLPTGSGANISIDKRLPMGGGLGGGSSNAATVLVALNHLWQCGLSMDELAEMGLTLGADVPVFVRGHAAFAEGVGEILTPVDPPEKWYLVAHPGVSIPTPVIFKDPELPRNTPKRSIETLLKCEFSNDCEVIARKRFREVDAVLSWLLEYAPSRLTGTGACVFAEFDTESEARQVLEQAPEWLNGFVAKGANLSPLHRAMLSLGGGGSAAAMRIGHGFDVHAFGGEGPIIIGGVRIPYEKGLLAHSDGDVALHALTDALLGAAALGDIGKLFPDTDPAFKGADSRELLREAWRRIQAKGYTLGNVDVTIIAQAPKMLPHIPQMRVFIAEDLGCHMDDVNVKATTTEKLGFTGRGEGIACEAVALLIKATK
In the case of B1, the “decrease in lycopene production than SALyc-SDFEI” value (MEP pathway flux) is reported as “at least 65%”, the “decrease in normalized lycopene titers than SALyc-SDFEI” value (MEP pathway flux) is reported as 85% and the “lycopene production / titers, in words” value (MEP pathway flux; comparison as stated in the sentence (FIGS. 21, 23, 25)) is reported as “lowered the lycopene production substantially”.

B2: IspDF2: novel bifunctional IspD-IspF fusion from soil metagenome fosmid NR0032_O07, 42.1 kDa (protein)
chain: MQVTAIIAAGGRGRRFGGGVPKQLVGVGGRPILERTVAAFLGHPAIHEVVVALPAELMADPPAYLRAAPKPIRLVAGGVQRQDSVRQAFQAANEQSDVIVIHDAARPFASADLISRTIAAAAEGGAALAAVPARDTVKRGAFAAGRTGPAGRQAVEGAPLLVVAETLPRDSIYLAQTPQAFRRDVLRDALALGEAGSEATDEATLAERAGHIVRLVEGEPANIKITTPDDLLVAFRIGAGYDLHRLVEGRPLVLGGVTIPFERGLLGHSDADAICHAVTDAVLGAAAAGDIGRHFPDSDPKWRDWSSIDLLRRASAIVKGRGYAIANVDAVVIAERPKLAPFLDEMRANVAGAIGIAVDAVGIKGKTNEGLGELGRGEAIAVHAVALLHL
B2 was tested, and the “terpene titer (lycopene and isoprene), in words” value (MEP pathway flux) was “lowered the titer”.

B3: pcaK: MFS aromatic acid antiporter amplified from Pseudomonas putida KT2440 (protein, UniProt Q51955 1-448, looked up)
4-hydroxybenzoate transporter …: MNQAQNSVGKSLDVQSFINQQPLSRYQWRVVLLCFLIVFLDGLDTAAMGFIAPALSQEWGIDRASLGPVMSAALIGMVFGALGSGPLADRFGRKGVLVGAVLVFGGFSLASAYATNVDQLLVLRFLTGLGLGAGMPNATTLLSEYTPERLKSLLVTSMFCGFNLGMAGGGFISAKMIPAYGWHSLLVIGGVLPLLLALVLMVWLPESARFLVVRNRGTDKIRKTLSPIAPQVVAEAGSFSVPEQKAVAARSVFAVIFSGTYGLGTMLLWLTYFMGLVIVYLLTSWLPTLMRDSGASMEQAAFIGALFQFGGVLSAVGVGWAMDRYNPHKVIGIFYLLAGVFAYAVGQSLGNITVLATLVLIAGMCVNGAQSAMPSLAARFYPTQGRATGVSWMLGIGRFGAILGAWSGATLLGLGWNFEQVLTALLVPAALATVGVIVKGLVSHADAT
With B3 the “production of CBGA” value (E. coli [1]) was “increased production of CBGA” and the “olivetolate uptake inside cells” value (E. coli [2]) was “increased olivetolate uptake”.

B4: IspDF3: novel bifunctional IspD-IspF fusion from soil metagenome fosmid NR0037_N05, 40.2 kDa (protein)
chain: MVHVSAIIAAGGRGERFGGPQPKQLLLLGGVPILKRTVDAFLRGYPFIEVIVALPAEFVANPPDYLDDVIVVEGGARRQDSVANAFRAVAPSAQVVVIHDAARPLVTPSLIERTVDAAVKHGAAIAALRATDTVKRGDASRVIRGTLPRDEIFLAQTPQAFRAGVLRDALALAASAADATDEAMLAEQAGHHVRLVDGDPRNLKITTPEDLEMRIGNGYDLHRLVTGRPLVLGGVTIPFEKGLQGHSDADAVCHAITDAILGAASAGDIGRHFPDTDPAWKDAKSIVLLQQAAQIVSRAGYAIANLDVVVIAQQPKLVPHIDAIRHSVAHALGIDVQQVSVKGKTNEGVDSMGAGESIAVHAVALLQHS
For B4, the “terpene titer (lycopene and isoprene), in words” value (MEP pathway flux) was “lowered the titer”.
